This note sets out measurements from US7125704B2, “Gluconate dehydratase” (priority 2003, dated 2006).

The nature of this series: Thermostability and storage stability of purified gluconate dehydratase (remaining activity after standing). In kind it is physicochemical, Achromobacter xylosoxidans strain ATCC 9220. The protocol: The gluconate dehydratase activity in the present invention produces 2-keto-3-deoxy-D-gluconic acid, using D-gluconic acid as the substrate. The activity can be determined as follows: A reaction mixture in an amount of 1 mL containing […] of a Tris buffer (pH 8.5), 40 μmol of sodium D-gluconate, 1 μmol of magnesium chloride, and the gluconate dehydratase is allowed to react at 37° C. for 10 minutes, and 200 μL of 1 M hydrochloric acid solution is added to the reaction mixture to stop the reaction; and then, the amount of the resulting 2-keto-3-deoxy-D-gluconic acid is determined by high-performance liquid chromatography (column: Shodex Asahipak NH2P-50 4E, produced by Showa Denko, column temperature: 40° C., mobile phase: 50 mM sodium dihydrogen phosphate solution, flow rate: 1 mL/min, detection at 210 nm). An amount of enzyme for catalyzing the production of 1 μmol of 2-keto-3-deoxy-D-gluconic acid for one minute is defined as 1 U. The amount of protein may be determined by a dye-binding method using a Bio-Rad protein assay kit.
Samples of the purified gluconate dehydratase solution prepared in Example 3, which was dissolved in the 30 mM Tris buffer (pH 8.5) containing 1 mM sodium D-gluconate and 1 mM magnesium chloride, […] Another sample was allowed to stand at 4° C. for 7 days and 30 days. […]

B1: Gluconate Dehydratase: heat-resistant gluconate dehydratase purified from Achromobacter xylosoxidans strain ATCC 9220, amino acid sequence SEQ ID NO:2 (protein)
chain: MTDTPRKLRSQKWFDDPAHADMTAIYVERYLNYGLTRQELQSGRPIIGIAQTGSDLAPCNRHHLALAERIKAGIRDAGGIPMEFPVHPLAEQGRRPTAALDRNLAYLGLVEILHGYPLDGVVLTTGCDKTTPACLMAAATVDIPAIVLSGGPMLDGWHDGQRVGSGTVIWHARNLMAAGKLDYEGFMTLATASSPSIGHCNTMGTALSMNSLAEALGMSLPTCASIPAPYRERGQMAYATGLRICDMVREDLRPSRILTREAFENAIVVASALGASSNCPPHLIAMARHAGIDLSLDDWQRLGEDVPLLVNCVPAGEHLGEGFHRAGGVPAVMHELLAAGRLHADCATVSGKTIGEIAAGAKTHDADVIRGCDAPLKHRAGFIVLSGNFFDSAVIKMSVVGEAFRRAYLSAPGDENAFEARAIVFEGPEDYHARIEDPALNIDEHCILVIRGAGTVGYPGSAEVVNMAPPSHLIKRGIDSLPCLGDGRQSGTSASPSILNMSPEAAVGGGLALLRTGDRIRVDLNQRSVIALVDEAELARRRQDPPYQPPPAQTPWQELYRQLVGQLSTGGCLEPSTLYLKVVETRGDPRHSH
modifications: Achromobacter xylosoxidans
For the molecule B1, the “Remaining activity (%)” value (buffer, 168 h) worked out at 100%. The “Storage stability of the activity” value (storage at 0° C. in Tris buffer (pH 8.0 to 8.8), 1 mM sodium D-gluconate, 1 mM magnesium chloride (same conditions as the M250 report)) is given as “maintain the activity stably for one month”.
